In PMC5605669 (2017) one finds screen value data, which are given here for two variants.

B1: APOBEC3G, wild type [human] / itself (parent complex)
chain: MKPHFRNTVERMYRDTFSYNFYNRPILSRRNTVWLCYEVKTKGPSRPPLDAKIFRGQVYSELKYHPEMRFFHWFSKWRKLHRDQEYEVTWYISWSPCTKCTRDMATFLAEDPKVTLTIFVARLYYFWDPDYQEALRSLCQKRDGPRATMKIMNYDEFQHCWSKFVYSQRELFEPWNNLPKYYILLHIMLGEILRHSMDPPTFTFNFNNEPWVRGRHETYLCYEVERMHNDTWVLLNQRRGFLCNQAPHKHGFLEGRHAELCFLDVIPFWKLDLDQDYRVTCFTSWSPCFSCAQEMAKFISKNKHVSLCIFTARIYDDQGRCQEGLRTLAEAGAKISIMTYSEFKHCWDTFVDHQGCPFQPWDGLDEHSQDLSGRLRAILQNQEN

This experiment covers variants of B1. Description: single-molecule ssDNA binding curves fit with two-step binding model (k2 from k slow); parent: 0.007; read off a plot.
Regarding chain 1 I314A, chain 1 Y315A, the screen value was about 0.0066 s⁻¹. Regarding chain 1 R313A, chain 1 D316A, chain 1 D317A, chain 1 Q318A, the screen value was about 0.0057 s⁻¹.
